Tested on: MS2 coat protein
Test: apparent KD of MS2 coat protein; designed switch direction (-1 OFF switch, 1 ON switch): -1; higher = weaker reporter binding
Procedure, shortened: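 Normalised cluster fluorescence was curve-fitted, and each design's median over clusters is its apparent KD. Before this, SNAP-549-labelled MS2 coat protein was titrated from 0.7 or 1.5 nM, doubling to 3 µM, over RNA switches transcribed on Illumina chips by stalled E. coli RNA polymerase. Titrations had no input, 200 uM small-molecule ligand, or an oligonucleotide input, and steps lasted 0.8–1.5 h (lowest) to 10–20 min (highest).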

[1] = Eterna round: R95, input ligand: FMN 200 uM
[2] = Eterna round: R95, input ligand: microRNA oligo, concentration not stated
[3] = Eterna round: R95, input ligand: none

Sequence	apparent KD of MS2 coat protein [1] [nM]	apparent KD of MS2 coat protein [2] [nM]	apparent KD of MS2 coat protein [3] [nM]	apparent KD of MS2 coat protein (input ligand: FMN 200 uM) [nM]	apparent KD of MS2 coat protein (input ligand: none) [nM]	apparent KD of MS2 coat protein (input ligand: microRNA oligo, concentration not stated) [nM]
CUGAGCAGACGGAAAUCCAACAUGAGGAUCACCCAUGUCUCAAAAGCUUUUUGCUCGUCUUAUCCUCCUCUGUUCUC [Tiardia] (puzzle: Sensor v3, turn-off variant 1)	24.1	138	21.1			
UUCCUCGUUGUGAGGAUAUCGUCCGGGUUUUGUUACGAGAAGGCACAUGAGGAUCACCCAUGUUACUUGAUGUU [JR_BMOE4_Sub072] (puzzle: Brourd's mod of Exclusion 4)		20				
CUGAGCAGACGGAGAUCCAACAUGAGGAUCACCCAUGUCUCAAAAGCUUUUUGCUCGUCUUAUCCUCCUCUGCUCAC [Geesbeleri] (puzzle: Sensor v3, turn-off variant 1)	11.2	21.8	12.5			
AAUAACAAGUGAGAUCCUAACAUGAGGAUCACCCAUGUGCUCGUCUUAUAAAGUACUAUCACGAAAGUGAUAGUACA [Sensor 3, v1 - 54] (puzzle: Sensor v3, turn-off variant 1)	117	7.29	70.6			
CCAUGUUAGCAGGAUAUGCCAUUAUUCCUUUACGCAGAAGGGCUUACAUGAGGAUCACCCAUGUAACAUUUCAU [JR_E6_Sub083] (puzzle: Exclusion 6)		14.1				
AAUUAAACAAGCAGAUCCCACAUGAGGAUCACCCAUGUGCUCGUCUUAUAAGGUACUGUGACGAUAGUCACGGUACC [Mat - Sensor, turn-off var - Eli Mod - D65] (Eterna round: R97, puzzle: Sensor, turn-off variant 1)				44.6	42.7	
AUGAGCAGACGGAGAUCCAACAUGAGGAUCACCCAUGUCUCAAAAGCUUUUUGCUCAUCUUAUCGUACCUUGGUGCA [Mat - Sensor v3 - turn-off var 1 - JL Mod - D14] (puzzle: Sensor v3, turn-off variant 1)	191	13.2	197			
CUCGGACAUGAGGAUCACCCAUGUGAGGAUAUGGCGCUAUCGUCAUUAGACGAUUGCGCCAGAAGGCACAAAUG [LRO-Excl1-27] (puzzle: Exclusion 1)		80.7				
GAAGCACAUGAGGAUCACCCAUGUAAGGAUAUACGUCUGGUCCGGCCGGACCAGUACCGUAGAAGGUACGUAAA [Excls-Ia] (puzzle: Exclusion 1)		18.1				
UUGUUCGAGCGGAGUUCUCACAUGAGGAUCACCCAUGUGCUCGUCUUGUGUGGUUCUGUGGCGUGGUUCGCGGUGCC [Sensor, turn-off variant 1] (Eterna round: R97, puzzle: Sensor, turn-off variant 1)				237	292	
GGUAAGCUAGGAUAUGCUUUGGGAAAGCAUUCCUUCGAUAAACUUGAGGAUCACCCAAGUAGAAGGAGCUUACG [salish99_ex2_r4_015] (Eterna round: R97, puzzle: Exclusion 2)				16.7	12.8	
GGGCCCGGAGGAUAUACAUGAGGAUCACCCAUGUAGCGCGCGCGUAUUUGUGUGUGUUGUAGAAGGCCGGGCCC [-36.6, -33.8 kcal, A 19%, 6-0] (Eterna round: R97, puzzle: Exclusion 3)				57.9	17.9	
GGUUGGCGAGGAUAUACAUGAGGAUCACCCAUGUGACAGAAAAAAGUGAGGAAGAAAAGUAGAAGGCGCUGACG [salish99_ex3_r3_019] (puzzle: Exclusion 3)	587	44.9	37.1			
ACAUGCUUAAUCUGUAUGAACAUGAGGAUCACCCAUGUAUAAGGGAAUUCUUUUGGGUUUUUUAUUGCUCGUCUUAU [JR_STOV1_Sub022] (Eterna round: R97, puzzle: Sensor, turn-off variant 1)				379	360	
UACUUCCGAGGAUAUACAUGAGGAUCACCCAUGUGCUUCAGCAUUUUUUGAUGCAUGGGUAGAAGGCGGUAGUU [LRO-Excl3-17] (puzzle: Exclusion 3)		299				
AGAAGUAGAAACCGAUCCUACAUGAGGAUCACCCAUGUAGCAAGACGUGCACGCGAAGCUCGUCAGACUACCAGACG [salish99_TOv1_r3_019] (puzzle: Sensor v3, turn-off variant 1)	152	175	249			
CUCGGACAUGAGGAUCACCCAUGUGAGGAUAUGGUGCUAUCGUCAUUAGACGAUUGCGUUAGAAGGCACAUUUU [LRO-Excl1-29] (puzzle: Exclusion 1)		29.5				
UUCGGGUCAGGAUAUUGUUAGUUUAGUUGUUUGUAUUAGUUCGAGAAGGGACAUGAGGAUCACCCAUGUGGUAA [Ex4 #81] (Eterna round: R97, puzzle: Exclusion 4)				71.5	160	
GGUUGACAUGAGGAUCACCCAUGUGAGGAUAUGCGAGAGAAAAAAGUGAGGAAGAAUUGCAGAAGGCGCUGUCG [salish99-ex1_r3_015] (puzzle: Exclusion 1)	69.3	37.1	76.9			
ACAAGCUUUGAUAUCCUUAACAUGAGGAUCACCCAUGUUCGUCUUAUGAUGGUCUGAUCCCUGAGGAUCGGACCGUU [JL-sv1-2.08 Brourd Mod] (puzzle: Sensor v3, turn-off variant 1)	33.7	96.2	35.5			
GUCAUGUUAGGAUAUCUAACAUGUGACUUCGGUCACUGUCCAGAGAAGGAACAUGAGGAUCACCCAUGUUGGAC [Ex4-3: 56] (puzzle: Exclusion 4)		13				
GUUUAGUGAGGAUAUGUGGCUUCGAUCGUGCGAGGGAGGCUACAGAAGGCACAUGAGGAUCACCCAUGUUCCUC [salish99_ex4_r4_303] (Eterna round: R97, puzzle: Exclusion 4)				655	42.5	
UUUUGAUAUGAAGGAUAUACUUAACAUGAGGAUCACCCAUGUGGUGUUGUGAGUGAGUGAGUUUAGUAGAAGGUCAAUUAUUUU [JMF's solution 26] (Eterna round: R96, puzzle: Exclusion NG 2)				470	303	293
UUAUACGCUGAGGAUAUCUUCACUGAAAAGUGAAGAGAAGGCGGUACAUGAGGAUCACCCAUGUCUAUGGGCAG [Ex-6 Malc#19] (puzzle: Exclusion 6)	381	388	478			
ACAAGCUUAAAAGGUGAUAACAUGAGGAUCACCCAUGUUCGUCUUAUAAAGAUCCUAUGUCGAAAGACGUAGGAUCA [Sensor 3, v1 - 69] (puzzle: Sensor v3, turn-off variant 1)	21.2	28	22			
UAUUAGUAAGGAUAUGAGUCGUAGAACGAAAGUACUACGUCUCAGAAGGUACAUGAGGAUCACCCAUGUUCAUU [Mod of Fisker 3 - Jieux - Exclusion 4] (Eterna round: R97, puzzle: Exclusion 4)				21.8	13.5	
AUAUGUAACUAGGAUAUCAGCAUACUUCAAUGUUGAGAAGGAGUUACAUGAGGAUCACCCAUGUAUCCAACAUG [Exclusion 6 - 3] (puzzle: Exclusion 6)		44.1				

Reference: the supplement of paper PMC9170038
